We go through 29 molecules from US20250218531A1 (ABSCI, published 2025).

Values joined by “and” are separate entries in the source; they are usually repeats but may differ in a detail not shown here. Identical values can stand only once.

B1: Trastuzumab HCDR3 variant VRYGNSYYYDY (Fab, V domains shown)
VH: EVQLVESGGGLVQPGGSLRLSCAASGFNIKDTYIHWVRQAPGKGLEWVARIYPTNGYTRYADSVKGRFTISADTSKNTAYLQMNSLRAEDTAVYYCVRYGNSYYYDYWGQGTLVTVSS
VL: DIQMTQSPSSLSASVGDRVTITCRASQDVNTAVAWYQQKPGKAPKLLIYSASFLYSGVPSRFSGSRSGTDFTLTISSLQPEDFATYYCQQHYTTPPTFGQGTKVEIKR
B2: Trastuzumab HCDR3 variant ARYYYGYGGYYFDY (Fab, V domains shown)
VH: EVQLVESGGGLVQPGGSLRLSCAASGFNIKDTYIHWVRQAPGKGLEWVARIYPTNGYTRYADSVKGRFTISADTSKNTAYLQMNSLRAEDTAVYYCARYYYGYGGYYFDYWGQGTLVTVSS
VL: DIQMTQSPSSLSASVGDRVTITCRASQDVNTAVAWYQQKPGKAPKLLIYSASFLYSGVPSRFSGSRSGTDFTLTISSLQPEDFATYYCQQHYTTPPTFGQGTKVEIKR
B3: Trastuzumab HCDR3 variant ARYGYAPGFYYMDV (Fab, V domains shown)
VH: EVQLVESGGGLVQPGGSLRLSCAASGFNIKDTYIHWVRQAPGKGLEWVARIYPTNGYTRYADSVKGRFTISADTSKNTAYLQMNSLRAEDTAVYYCARYGYAPGFYYMDVWGQGTLVTVSS
VL: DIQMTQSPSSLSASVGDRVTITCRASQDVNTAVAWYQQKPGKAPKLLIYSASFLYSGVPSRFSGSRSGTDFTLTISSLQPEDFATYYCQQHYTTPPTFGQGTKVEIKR
B4: Trastuzumab HCDR3 variant TRYYDGAGPYYMDY (Fab, V domains shown)
VH: EVQLVESGGGLVQPGGSLRLSCAASGFNIKDTYIHWVRQAPGKGLEWVARIYPTNGYTRYADSVKGRFTISADTSKNTAYLQMNSLRAEDTAVYYCTRYYDGAGPYYMDYWGQGTLVTVSS
VL: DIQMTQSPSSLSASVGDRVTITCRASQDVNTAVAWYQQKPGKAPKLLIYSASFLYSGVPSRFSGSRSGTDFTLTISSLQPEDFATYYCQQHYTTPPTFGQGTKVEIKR
B5: Trastuzumab HCDR3 variant ARYYGYYYAFDY (Fab, V domains shown)
VH: EVQLVESGGGLVQPGGSLRLSCAASGFNIKDTYIHWVRQAPGKGLEWVARIYPTNGYTRYADSVKGRFTISADTSKNTAYLQMNSLRAEDTAVYYCARYYGYYYAFDYWGQGTLVTVSS
VL: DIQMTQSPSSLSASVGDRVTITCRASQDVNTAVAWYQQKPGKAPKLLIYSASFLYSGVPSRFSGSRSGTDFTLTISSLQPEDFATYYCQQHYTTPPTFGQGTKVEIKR
B6: Trastuzumab HCDR3 variant ARGYFGGYYFAY (Fab, V domains shown)
VH: EVQLVESGGGLVQPGGSLRLSCAASGFNIKDTYIHWVRQAPGKGLEWVARIYPTNGYTRYADSVKGRFTISADTSKNTAYLQMNSLRAEDTAVYYCARGYFGGYYFAYWGQGTLVTVSS
VL: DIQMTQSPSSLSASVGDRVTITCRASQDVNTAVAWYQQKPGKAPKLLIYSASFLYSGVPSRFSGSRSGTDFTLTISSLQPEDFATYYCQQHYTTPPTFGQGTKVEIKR
B7: Trastuzumab HCDR3 variant ARGYWWLYGFAY (Fab, V domains shown)
VH: EVQLVESGGGLVQPGGSLRLSCAASGFNIKDTYIHWVRQAPGKGLEWVARIYPTNGYTRYADSVKGRFTISADTSKNTAYLQMNSLRAEDTAVYYCARGYWWLYGFAYWGQGTLVTVSS
VL: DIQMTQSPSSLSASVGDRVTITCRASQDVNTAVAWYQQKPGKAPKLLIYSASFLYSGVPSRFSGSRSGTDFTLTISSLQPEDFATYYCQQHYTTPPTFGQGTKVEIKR
B8: Trastuzumab HCDR3 variant ARFLYGSYYFDY (Fab, V domains shown)
VH: EVQLVESGGGLVQPGGSLRLSCAASGFNIKDTYIHWVRQAPGKGLEWVARIYPTNGYTRYADSVKGRFTISADTSKNTAYLQMNSLRAEDTAVYYCARFLYGSYYFDYWGQGTLVTVSS
VL: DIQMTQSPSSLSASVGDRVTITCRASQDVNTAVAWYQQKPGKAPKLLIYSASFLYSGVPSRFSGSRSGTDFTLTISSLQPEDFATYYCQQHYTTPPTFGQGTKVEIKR
B9: Trastuzumab HCDR3 variant ARHHYSGYFHDV (Fab, V domains shown)
VH: EVQLVESGGGLVQPGGSLRLSCAASGFNIKDTYIHWVRQAPGKGLEWVARIYPTNGYTRYADSVKGRFTISADTSKNTAYLQMNSLRAEDTAVYYCARHHYSGYFHDVWGQGTLVTVSS
VL: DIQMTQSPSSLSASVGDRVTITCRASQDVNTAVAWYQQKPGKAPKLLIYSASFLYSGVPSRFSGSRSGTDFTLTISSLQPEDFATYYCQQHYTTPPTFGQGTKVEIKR
B10: Trastuzumab HCDR3 variant ARASWYWYGGDK (Fab, V domains shown)
VH: EVQLVESGGGLVQPGGSLRLSCAASGFNIKDTYIHWVRQAPGKGLEWVARIYPTNGYTRYADSVKGRFTISADTSKNTAYLQMNSLRAEDTAVYYCARASWYWYGGDKWGQGTLVTVSS
VL: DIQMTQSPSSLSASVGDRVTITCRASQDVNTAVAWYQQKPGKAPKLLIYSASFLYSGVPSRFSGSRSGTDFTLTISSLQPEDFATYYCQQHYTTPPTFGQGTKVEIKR
B11: Trastuzumab HCDR3 variant ARGYYHYYHYQY (Fab, V domains shown)
VH: EVQLVESGGGLVQPGGSLRLSCAASGFNIKDTYIHWVRQAPGKGLEWVARIYPTNGYTRYADSVKGRFTISADTSKNTAYLQMNSLRAEDTAVYYCARGYYHYYHYQYWGQGTLVTVSS
VL: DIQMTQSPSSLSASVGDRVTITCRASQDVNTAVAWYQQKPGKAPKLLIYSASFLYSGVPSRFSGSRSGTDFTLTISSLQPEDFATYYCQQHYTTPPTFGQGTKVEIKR
B12: Trastuzumab HCDR3 variant ARHGSYYYDFDF (Fab, V domains shown)
VH: EVQLVESGGGLVQPGGSLRLSCAASGFNIKDTYIHWVRQAPGKGLEWVARIYPTNGYTRYADSVKGRFTISADTSKNTAYLQMNSLRAEDTAVYYCARHGSYYYDFDFWGQGTLVTVSS
VL: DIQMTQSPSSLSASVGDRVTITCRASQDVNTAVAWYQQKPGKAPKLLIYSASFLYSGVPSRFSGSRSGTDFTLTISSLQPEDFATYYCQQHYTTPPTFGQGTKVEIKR
B13: Trastuzumab HCDR3 variant AKYGISDYGFDH (Fab, V domains shown)
VH: EVQLVESGGGLVQPGGSLRLSCAASGFNIKDTYIHWVRQAPGKGLEWVARIYPTNGYTRYADSVKGRFTISADTSKNTAYLQMNSLRAEDTAVYYCAKYGISDYGFDHWGQGTLVTVSS
VL: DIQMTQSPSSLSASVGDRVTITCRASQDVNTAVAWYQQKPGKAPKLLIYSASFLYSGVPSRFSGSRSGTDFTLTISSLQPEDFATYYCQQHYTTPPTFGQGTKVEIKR
B14: Trastuzumab HCDR3 variant AAYWYGVYVFRY (Fab, V domains shown)
VH: EVQLVESGGGLVQPGGSLRLSCAASGFNIKDTYIHWVRQAPGKGLEWVARIYPTNGYTRYADSVKGRFTISADTSKNTAYLQMNSLRAEDTAVYYCAAYWYGVYVFRYWGQGTLVTVSS
VL: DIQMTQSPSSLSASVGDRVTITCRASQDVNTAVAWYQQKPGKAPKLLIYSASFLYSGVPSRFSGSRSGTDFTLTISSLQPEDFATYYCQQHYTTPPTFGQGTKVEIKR
B15: Trastuzumab HCDR3 variant AANAAIFAAWGA (Fab, V domains shown)
VH: EVQLVESGGGLVQPGGSLRLSCAASGFNIKDTYIHWVRQAPGKGLEWVARIYPTNGYTRYADSVKGRFTISADTSKNTAYLQMNSLRAEDTAVYYCAANAAIFAAWGAWGQGTLVTVSS
VL: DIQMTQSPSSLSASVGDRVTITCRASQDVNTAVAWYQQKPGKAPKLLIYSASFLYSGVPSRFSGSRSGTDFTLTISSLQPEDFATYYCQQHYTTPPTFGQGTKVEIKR
B16: Trastuzumab HCDR3 variant AQSGSYFYPFSY (Fab, V domains shown)
VH: EVQLVESGGGLVQPGGSLRLSCAASGFNIKDTYIHWVRQAPGKGLEWVARIYPTNGYTRYADSVKGRFTISADTSKNTAYLQMNSLRAEDTAVYYCAQSGSYFYPFSYWGQGTLVTVSS
VL: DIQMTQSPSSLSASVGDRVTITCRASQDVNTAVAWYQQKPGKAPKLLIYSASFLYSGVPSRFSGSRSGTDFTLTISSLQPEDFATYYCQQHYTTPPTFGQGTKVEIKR
B17: Trastuzumab HCDR3 variant ARFPVSSYAYGF (Fab, V domains shown)
VH: EVQLVESGGGLVQPGGSLRLSCAASGFNIKDTYIHWVRQAPGKGLEWVARIYPTNGYTRYADSVKGRFTISADTSKNTAYLQMNSLRAEDTAVYYCARFPVSSYAYGFWGQGTLVTVSS
VL: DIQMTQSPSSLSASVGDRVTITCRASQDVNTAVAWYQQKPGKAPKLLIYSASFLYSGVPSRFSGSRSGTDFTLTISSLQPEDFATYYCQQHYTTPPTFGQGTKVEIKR
B18: Trastuzumab HCDR3 variant AKYAFGGWSYSP (Fab, V domains shown)
VH: EVQLVESGGGLVQPGGSLRLSCAASGFNIKDTYIHWVRQAPGKGLEWVARIYPTNGYTRYADSVKGRFTISADTSKNTAYLQMNSLRAEDTAVYYCAKYAFGGWSYSPWGQGTLVTVSS
VL: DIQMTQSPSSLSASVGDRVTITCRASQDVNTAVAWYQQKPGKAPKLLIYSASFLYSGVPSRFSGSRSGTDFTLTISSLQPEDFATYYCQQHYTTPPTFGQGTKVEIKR
B19: Trastuzumab HCDR3 variant AKYGTSNYGFSH (Fab, V domains shown)
VH: EVQLVESGGGLVQPGGSLRLSCAASGFNIKDTYIHWVRQAPGKGLEWVARIYPTNGYTRYADSVKGRFTISADTSKNTAYLQMNSLRAEDTAVYYCAKYGTSNYGFSHWGQGTLVTVSS
VL: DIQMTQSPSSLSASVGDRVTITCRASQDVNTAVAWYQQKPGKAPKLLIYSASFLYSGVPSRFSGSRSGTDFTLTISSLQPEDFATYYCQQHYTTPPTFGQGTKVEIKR
B20: Trastuzumab HCDR3 variant ARGYYYYQWYYY (Fab, V domains shown)
VH: EVQLVESGGGLVQPGGSLRLSCAASGFNIKDTYIHWVRQAPGKGLEWVARIYPTNGYTRYADSVKGRFTISADTSKNTAYLQMNSLRAEDTAVYYCARGYYYYQWYYYWGQGTLVTVSS
VL: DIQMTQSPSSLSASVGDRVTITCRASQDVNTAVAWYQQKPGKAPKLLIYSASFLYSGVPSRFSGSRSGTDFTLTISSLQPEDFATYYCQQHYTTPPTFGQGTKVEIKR
B21: Trastuzumab HCDR3 variant AKYGRSDYGFEH (Fab, V domains shown)
VH: EVQLVESGGGLVQPGGSLRLSCAASGFNIKDTYIHWVRQAPGKGLEWVARIYPTNGYTRYADSVKGRFTISADTSKNTAYLQMNSLRAEDTAVYYCAKYGRSDYGFEHWGQGTLVTVSS
VL: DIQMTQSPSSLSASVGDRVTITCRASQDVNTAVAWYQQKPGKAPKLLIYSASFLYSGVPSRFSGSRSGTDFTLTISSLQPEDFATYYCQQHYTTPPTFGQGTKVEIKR
B22: Trastuzumab HCDR3 variant ARGYYYYFYYNY (Fab, V domains shown)
VH: EVQLVESGGGLVQPGGSLRLSCAASGFNIKDTYIHWVRQAPGKGLEWVARIYPTNGYTRYADSVKGRFTISADTSKNTAYLQMNSLRAEDTAVYYCARGYYYYFYYNYWGQGTLVTVSS
VL: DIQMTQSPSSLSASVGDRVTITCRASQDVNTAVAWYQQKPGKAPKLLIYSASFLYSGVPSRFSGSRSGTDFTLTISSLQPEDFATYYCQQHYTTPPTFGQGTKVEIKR
B23: Trastuzumab HCDR3 variant AASADFMYGVIR (Fab, V domains shown)
VH: EVQLVESGGGLVQPGGSLRLSCAASGFNIKDTYIHWVRQAPGKGLEWVARIYPTNGYTRYADSVKGRFTISADTSKNTAYLQMNSLRAEDTAVYYCAASADFMYGVIRWGQGTLVTVSS
VL: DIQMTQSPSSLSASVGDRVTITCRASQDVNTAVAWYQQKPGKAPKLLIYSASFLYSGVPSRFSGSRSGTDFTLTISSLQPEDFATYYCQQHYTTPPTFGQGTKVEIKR
B24: Trastuzumab HCDR3 variant ARASWNWYGGDY (Fab, V domains shown)
VH: EVQLVESGGGLVQPGGSLRLSCAASGFNIKDTYIHWVRQAPGKGLEWVARIYPTNGYTRYADSVKGRFTISADTSKNTAYLQMNSLRAEDTAVYYCARASWNWYGGDYWGQGTLVTVSS
VL: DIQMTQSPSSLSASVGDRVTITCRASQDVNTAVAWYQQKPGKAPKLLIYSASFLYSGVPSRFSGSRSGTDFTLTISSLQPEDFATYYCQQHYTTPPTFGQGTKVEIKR
B25: Trastuzumab HCDR3 variant AGYWYGSYSFDY (Fab, V domains shown)
VH: EVQLVESGGGLVQPGGSLRLSCAASGFNIKDTYIHWVRQAPGKGLEWVARIYPTNGYTRYADSVKGRFTISADTSKNTAYLQMNSLRAEDTAVYYCAGYWYGSYSFDYWGQGTLVTVSS
VL: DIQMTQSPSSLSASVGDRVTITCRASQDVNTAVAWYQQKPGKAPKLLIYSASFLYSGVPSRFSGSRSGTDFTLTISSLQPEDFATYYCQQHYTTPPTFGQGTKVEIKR
B26: Trastuzumab HCDR3 variant ARMSYYFYYMDY (Fab, V domains shown)
VH: EVQLVESGGGLVQPGGSLRLSCAASGFNIKDTYIHWVRQAPGKGLEWVARIYPTNGYTRYADSVKGRFTISADTSKNTAYLQMNSLRAEDTAVYYCARMSYYFYYMDYWGQGTLVTVSS
VL: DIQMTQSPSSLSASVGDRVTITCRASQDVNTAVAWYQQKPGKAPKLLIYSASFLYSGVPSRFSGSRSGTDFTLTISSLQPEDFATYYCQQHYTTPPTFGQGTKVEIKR
B27: Trastuzumab HCDR3 variant AAYGPQGYAFAV (Fab, V domains shown)
VH: EVQLVESGGGLVQPGGSLRLSCAASGFNIKDTYIHWVRQAPGKGLEWVARIYPTNGYTRYADSVKGRFTISADTSKNTAYLQMNSLRAEDTAVYYCAAYGPQGYAFAVWGQGTLVTVSS
VL: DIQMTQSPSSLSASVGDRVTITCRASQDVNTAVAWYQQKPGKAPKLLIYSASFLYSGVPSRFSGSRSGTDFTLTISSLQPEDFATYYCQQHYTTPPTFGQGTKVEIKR
B28: Trastuzumab HCDR3 variant ALYKRYDYAFGY (Fab, V domains shown)
VH: EVQLVESGGGLVQPGGSLRLSCAASGFNIKDTYIHWVRQAPGKGLEWVARIYPTNGYTRYADSVKGRFTISADTSKNTAYLQMNSLRAEDTAVYYCALYKRYDYAFGYWGQGTLVTVSS
VL: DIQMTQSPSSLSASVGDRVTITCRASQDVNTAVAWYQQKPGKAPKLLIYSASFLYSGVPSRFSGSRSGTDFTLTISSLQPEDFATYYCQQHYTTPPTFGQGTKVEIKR
B29: Trastuzumab HCDR3 variant ALLYGYYPSGVG (Fab, V domains shown)
VH: EVQLVESGGGLVQPGGSLRLSCAASGFNIKDTYIHWVRQAPGKGLEWVARIYPTNGYTRYADSVKGRFTISADTSKNTAYLQMNSLRAEDTAVYYCALLYGYYPSGVGWGQGTLVTVSS
VL: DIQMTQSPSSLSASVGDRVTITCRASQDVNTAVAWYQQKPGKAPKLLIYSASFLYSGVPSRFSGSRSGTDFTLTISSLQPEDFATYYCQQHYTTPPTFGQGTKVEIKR

As usually defined, the Kd is the constant that tells how readily two partners part at equilibrium.

The first assay deals with T1, HER2 (human epidermal growth factor receptor 2) (human, UniProt P04626 23-629).
T1 construct: also called Antigen: HER2
Kind of assay: SPR. (SPR reads the build-up and loss of mass on a sensor chip optically.)
With B1, the Kd is 26.9 nM and the “log(KD (M))” value was -7.57.

As for B2, binding was put at a Kd of 15 nM and the “log(KD (M))” value was -7.82.

With B3, binding was put at a Kd of 9.72 nM and the “log(KD (M))” value is -8.01.

In the case of B4, the Kd was 23.7 nM and 23.6 nM; the “log(KD (M))” value was -7.63.

A further assay deals with human epidermal growth factor receptor 2 (HER2) extracellular domain (human, UniProt P04626 23-629). Kind of assay: SPR.
B5: binding was characterised by a dissociation constant (Kd) of 46.3 nM and the “log(KD (M))” value is -7.33 log(M).

Take B6: the Kd was 130 nM and the “log(KD (M))” value is -6.88 log(M).

Take B7: the Kd stood at 172 nM and the “log(KD (M))” value was -6.77 log(M).

On to B8, for which the Kd turned out to be 135 nM and the “log(KD (M))” value was -6.87 log(M).

Take B9: the Kd was determined as 148 nM and the “log(KD (M))” value is -6.83 log(M).

Regarding B10, the Kd turned out to be 37.8 nM and the “log(KD (M))” value was -7.42 log(M).

Turning to B11, binding was put at a Kd of 95.1 nM and the “log(KD (M))” value was -7.02 log(M).

On to B12, for which the Kd was 56.6 nM and the “log(KD (M))” value is -7.25 log(M).

Consider B13, for which the affinity, expressed as Kd, was 207 nM and the “log(KD (M))” value was -6.68 log(M).

As to B14, the Kd was found to be 113 nM and the “log(KD (M))” value is -6.95 log(M).

As to B15, the Kd came out at 43.1 nM and the “log(KD (M))” value is -7.37 log(M).

With B16, binding was characterised by a dissociation constant (Kd) of 83.2 nM and the “log(KD (M))” value was -7.08 log(M).

Take B17: the Kd is 36.2 nM and the “log(KD (M))” value is -7.44 log(M).

In the case of B18, binding was characterised by a dissociation constant (Kd) of 37.7 nM and the “log(KD (M))” value is -7.42 log(M).

With B19, the Kd turned out to be 27.6 nM and the “log(KD (M))” value was -7.56 log(M).

Turning to B20, the Kd was 33.6 nM and the “log(KD (M))” value was -7.47 log(M).

B21: the affinity, expressed as Kd, was 133 nM and the “log(KD (M))” value is -6.88 log(M).

In the case of B22, the affinity, expressed as Kd, was 30.3 nM and the “log(KD (M))” value was -7.52 log(M).

On to B23, for which the Kd stood at 39.6 nM and the “log(KD (M))” value was -7.4 log(M).

For B24, the Kd worked out at 92.9 nM and the “log(KD (M))” value was -7.03 log(M).

Take B25: the Kd is 35.4 nM and the “log(KD (M))” value is -7.45 log(M).

Turning to B26, the Kd turned out to be 48.9 nM and the “log(KD (M))” value was -7.31 log(M).

Turning to B27, the Kd worked out at 33.8 nM and the “log(KD (M))” value is -7.47 log(M).

As for B28, the Kd is 86.6 nM and the “log(KD (M))” value is -7.06 log(M).

For B29, the Kd is 262 nM and the “log(KD (M))” value is -6.58 log(M).
